Measured values as given in patent US20100003244A1 (TRIGEN, published 2010).
Several values for one entry are separate records, joined by “and”; a condition that tells them apart may be missing. Identical values can stand only once. Ends that are not written are not given here.

Assays:
mouse GPVI (mouse) = mouse GPVI (mouse) (UniProt P0C191); assay: cell-based or functional assay
GPVI peptide 11 [1] = target: T1, GPVI peptide 11 (human); assay: PepSpot control incubation
T1 peptide: Ac-QSGPLPKPSLQAL

GPVI peptide 53 (human) [2] = target: T2, GPVI peptide 53 (human); assay: PepSpot control incubation
T2 sequence (peptide, N-terminus acetylated): LVATGVFAKPSLS

GPVI peptide 130 (human) [3] = target: T3, GPVI peptide 130 (human); assay: PepSpot control incubation
T3 sequence (peptide, N-terminus acetylated): GPARQYYTKGNGG

GPVI peptide 33 (human) [4] = target: T4, GPVI peptide 33 (human); assay: PepSpot control incubation
T4 sequence (peptide, N-terminus acetylated): SRYQDQAVLFIPA

GPVI peptide 117 (human) [5] = target: T5, GPVI peptide 117 (human); assay: PepSpot control incubation
T5 sequence (peptide, N-terminus acetylated): SFTNKVFTTETSR

GPVI peptide 54 [6] = target: T6, GPVI peptide 54 (human); assay: PepSpot control incubation
T6 peptide: Ac-ATGVFAKPSLSAQ

GPVI peptide 37 [7] = target: T7, GPVI peptide 37 (human); assay: PepSpot control incubation
T7 peptide: Ac-LFIPAMKRSLAGR

GPVI peptide 7 (human) [8] = target: T8, GPVI peptide 7 (human); assay: PepSpot control incubation
T8 sequence (peptide, N-terminus acetylated): LCLGRVPAQSGPL

GPVI peptide 131 (human) [9] = target: T9, GPVI peptide 131 (human); assay: PepSpot control incubation
T9 sequence (peptide, N-terminus acetylated): ARQYYTKGNGGRE

GPVI peptide 118 (human) [10] = target: T10, GPVI peptide 118 (human); assay: PepSpot control incubation
T10 sequence (peptide, N-terminus acetylated): TNKVFTTETSRSI

GPVI peptide 32 (human) [11] = target: T11, GPVI peptide 32 (human); assay: PepSpot control incubation
T11 sequence (peptide, N-terminus acetylated): SSSRYQDQAVLFI

[12] = target: collagen (type I bovine; BD Bioscience) (bovine) (UniProt P02453); assay: ELISA, collagen type 1 coated plates, Lineweaver-Burk plot
Sequence of collagen (type I bovine; BD Bioscience) (bovine) (P02453 162-1217, chain 1 of 2): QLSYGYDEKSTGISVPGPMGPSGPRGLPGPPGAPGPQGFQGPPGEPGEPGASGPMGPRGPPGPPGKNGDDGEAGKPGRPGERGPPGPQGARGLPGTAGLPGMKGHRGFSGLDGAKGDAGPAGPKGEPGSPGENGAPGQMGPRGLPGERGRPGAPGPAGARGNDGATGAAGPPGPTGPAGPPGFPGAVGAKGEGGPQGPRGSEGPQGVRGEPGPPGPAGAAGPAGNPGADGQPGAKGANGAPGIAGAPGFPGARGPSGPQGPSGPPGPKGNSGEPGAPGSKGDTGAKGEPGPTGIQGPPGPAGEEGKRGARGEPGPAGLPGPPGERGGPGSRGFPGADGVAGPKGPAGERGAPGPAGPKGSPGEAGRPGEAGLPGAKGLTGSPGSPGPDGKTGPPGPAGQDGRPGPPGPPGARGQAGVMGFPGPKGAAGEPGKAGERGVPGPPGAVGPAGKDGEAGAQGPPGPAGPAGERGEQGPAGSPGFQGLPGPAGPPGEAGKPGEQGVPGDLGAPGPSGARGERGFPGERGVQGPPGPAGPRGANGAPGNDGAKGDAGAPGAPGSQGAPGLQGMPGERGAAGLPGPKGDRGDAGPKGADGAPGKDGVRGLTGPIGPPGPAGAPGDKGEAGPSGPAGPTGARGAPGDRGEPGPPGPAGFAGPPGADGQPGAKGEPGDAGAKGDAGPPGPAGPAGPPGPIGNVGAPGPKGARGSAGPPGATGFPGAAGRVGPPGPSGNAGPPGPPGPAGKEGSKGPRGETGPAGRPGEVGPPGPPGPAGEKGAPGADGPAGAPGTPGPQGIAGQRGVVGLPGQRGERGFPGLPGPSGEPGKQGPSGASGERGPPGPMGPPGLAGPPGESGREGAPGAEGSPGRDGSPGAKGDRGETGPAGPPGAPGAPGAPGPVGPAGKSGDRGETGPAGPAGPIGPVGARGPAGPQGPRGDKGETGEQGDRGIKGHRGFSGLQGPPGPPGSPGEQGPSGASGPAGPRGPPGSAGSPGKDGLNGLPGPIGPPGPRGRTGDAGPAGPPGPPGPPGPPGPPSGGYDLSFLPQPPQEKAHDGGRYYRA
Sequence of collagen (type I bovine; BD Bioscience) (bovine) (P02465 80-1117, chain 2 of 2, further chain): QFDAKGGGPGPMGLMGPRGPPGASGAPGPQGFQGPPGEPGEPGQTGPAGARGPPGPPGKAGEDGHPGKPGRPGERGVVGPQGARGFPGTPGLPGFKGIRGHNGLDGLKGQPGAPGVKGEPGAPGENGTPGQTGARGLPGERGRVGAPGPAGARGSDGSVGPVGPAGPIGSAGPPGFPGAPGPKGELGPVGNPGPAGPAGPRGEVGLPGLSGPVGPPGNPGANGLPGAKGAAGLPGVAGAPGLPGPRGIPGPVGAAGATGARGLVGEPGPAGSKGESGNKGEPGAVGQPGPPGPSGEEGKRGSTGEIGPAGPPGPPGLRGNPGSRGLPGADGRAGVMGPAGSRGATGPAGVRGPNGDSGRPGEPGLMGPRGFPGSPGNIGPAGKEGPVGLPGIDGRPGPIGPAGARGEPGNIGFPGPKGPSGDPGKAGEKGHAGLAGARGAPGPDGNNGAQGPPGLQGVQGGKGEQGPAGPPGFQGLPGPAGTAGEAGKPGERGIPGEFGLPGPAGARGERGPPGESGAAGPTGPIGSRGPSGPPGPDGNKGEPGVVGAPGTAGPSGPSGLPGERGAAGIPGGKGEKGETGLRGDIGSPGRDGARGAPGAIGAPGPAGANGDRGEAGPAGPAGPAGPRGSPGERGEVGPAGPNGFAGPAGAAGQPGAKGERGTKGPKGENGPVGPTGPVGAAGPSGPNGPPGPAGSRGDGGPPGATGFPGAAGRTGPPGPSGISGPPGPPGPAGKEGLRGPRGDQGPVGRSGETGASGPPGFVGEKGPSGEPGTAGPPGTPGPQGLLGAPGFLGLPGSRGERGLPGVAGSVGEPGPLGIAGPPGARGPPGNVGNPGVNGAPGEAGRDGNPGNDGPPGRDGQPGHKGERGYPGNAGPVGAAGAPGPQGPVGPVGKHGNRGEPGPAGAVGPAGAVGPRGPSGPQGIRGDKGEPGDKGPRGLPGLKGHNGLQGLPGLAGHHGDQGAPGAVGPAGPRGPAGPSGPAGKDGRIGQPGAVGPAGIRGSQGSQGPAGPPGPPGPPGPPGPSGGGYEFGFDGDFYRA

Fc-GPVI-nt (human) = assay: competition ELISA, immobilized collagen
Sequence of Fc-GPVI-nt (human) (chain, as listed by the source limits assumed): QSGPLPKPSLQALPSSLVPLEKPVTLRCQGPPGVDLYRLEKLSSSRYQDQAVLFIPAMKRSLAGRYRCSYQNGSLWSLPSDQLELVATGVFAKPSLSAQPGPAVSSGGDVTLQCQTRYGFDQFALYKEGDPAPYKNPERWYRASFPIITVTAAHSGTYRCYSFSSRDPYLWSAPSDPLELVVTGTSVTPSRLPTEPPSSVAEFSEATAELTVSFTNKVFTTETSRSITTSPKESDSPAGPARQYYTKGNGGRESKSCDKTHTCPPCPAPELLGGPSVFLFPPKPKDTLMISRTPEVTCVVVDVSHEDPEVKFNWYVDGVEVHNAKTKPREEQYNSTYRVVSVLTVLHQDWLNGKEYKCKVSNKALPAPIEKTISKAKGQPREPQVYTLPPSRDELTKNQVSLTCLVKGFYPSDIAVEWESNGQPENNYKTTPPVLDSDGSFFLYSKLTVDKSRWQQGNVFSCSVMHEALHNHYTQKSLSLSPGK

GPVI peptide 11 [13] = target: T1, GPVI peptide 11; assay: PepSpot array
Method: (§1) The peptides were synthesized on a cellulose membrane in a stepwise manner resulting in a defined arrangement (peptide array) and are covalently bound to the cellulose membrane. Binding assays were performed directly on the peptide array. In general an antigen peptide array is incubated with blocking buffer for several hours to reduce non-specific binding of proteins or antibodies. It follows the incubation with a primary (antigen peptide-binding) antibody in blocking buffer and an incubation with a horseradish peroxidase (HRP)-labelled secondary antibody, which binds selectively the primary antibody. Alternatively a HRP-labelled primary antibody in blocking buffer can be used.
(§2) A short T(Tween)-TBS-buffer washing directly after the incubation of the antigen peptide array with the secondary protein or antibody or the HRP-labelled primary antibody followed by the first chemiluminescence experiment is made to get an first overview which antigen peptides do bind the primary antibody. Several buffer washing steps follow (T-TBS- and TBS-buffer) to reduce false positive binding (unspecific antibody binding to the cellulose membrane itself). After these washing steps the final chemiluminescence analysis is performed. The data were analysed with an imaging system showing the signal intensity (Light units, LU) as single measurements for each peptide. In order to evaluate non-specific binding of secondary antibodies, incubations using the secondary antibody have to be performed in the absence of the primary antibody as control incubation.

GPVI peptide 54 [14] = target: T6, GPVI peptide 54; assay: PepSpot array
Method: as §1, §2

GPVI peptide 37 [15] = target: T7, GPVI peptide 37; assay: PepSpot array
Method: as §1, §2

GPVI peptide 53 (human) [16] = target: T2, GPVI peptide 53 (human); assay: PepSpot array
GPVI peptide 130 (human) [17] = target: T3, GPVI peptide 130 (human); assay: PepSpot array
GPVI peptide 33 (human) [18] = target: T4, GPVI peptide 33 (human); assay: PepSpot array
GPVI peptide 117 (human) [19] = target: T5, GPVI peptide 117 (human); assay: PepSpot array
GPVI peptide 7 (human) [20] = target: T8, GPVI peptide 7 (human); assay: PepSpot array
GPVI peptide 131 (human) [21] = target: T9, GPVI peptide 131 (human); assay: PepSpot array
GPVI peptide 118 (human) [22] = target: T10, GPVI peptide 118 (human); assay: PepSpot array
GPVI peptide 32 (human) [23] = target: T11, GPVI peptide 32 (human); assay: PepSpot array

Sequence of mouse GPVI (mouse) (P0C191 22-313): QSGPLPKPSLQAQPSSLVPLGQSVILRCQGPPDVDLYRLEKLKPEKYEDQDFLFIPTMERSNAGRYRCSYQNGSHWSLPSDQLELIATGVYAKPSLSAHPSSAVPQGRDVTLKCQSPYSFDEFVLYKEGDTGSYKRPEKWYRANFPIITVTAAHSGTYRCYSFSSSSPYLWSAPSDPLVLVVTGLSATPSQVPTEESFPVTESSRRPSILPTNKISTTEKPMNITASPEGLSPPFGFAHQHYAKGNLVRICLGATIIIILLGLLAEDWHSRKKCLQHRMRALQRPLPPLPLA

JAQ1 (antibody) was tested, and the ATP release, mouse platelet-rich plasma (mouse GPVI (mouse)) was 1.09 nM ATP and the platelet aggregation after stimulation with 2 µg collagen/ml, mouse platelet-rich plasma (mouse GPVI (mouse)) was 2% and 1.5%.

With anti-rat-HRP (Sigma A9037) (antibody) the LU (Light Units) (GPVI peptide 11 [1]) was 212 LU, the LU (Light Units) (GPVI peptide 53 (human) [2]) was 240 LU and the LU (Light Units) (GPVI peptide 130 (human) [3]) was 343 LU. The LU (Light Units) (GPVI peptide 33 (human) [4]) was 204 LU, the LU (Light Units) (GPVI peptide 117 (human) [5]) was 377 LU and the LU (Light Units) (GPVI peptide 54 [6]) was 190 LU. It also gave an LU (Light Units) (GPVI peptide 37 [7]) of 280 LU, an LU (Light Units) (GPVI peptide 7 (human) [8]) of 239 LU and an LU (Light Units) (GPVI peptide 131 (human) [9]) of 389 LU. It also gave an LU (Light Units) (GPVI peptide 118 (human) [10]) of 354 LU and an LU (Light Units) (GPVI peptide 32 (human) [11]) of 240 LU.

For “monomeric GPVI fusion protein (Fc fusion)”, the fold lower affinity compared to dimeric Fc-GPVI-nt [12] was 10 fold.

With soluble collagen (ligand) the concentration required to reduce Fc-GPVI-nt binding to immobilized collagen by more than 50% (Fc-GPVI-nt (human)) was 100 µg/mL.

B1: monoclonal antibody hGP 5C4 (antibody, V domains shown)
VH: EVKLQESGGGLVQPGRSLKLSCTASGFTFSDYFMSWVRQAPTRGLEWVASISSGGASAYWRDSVKGRFTISRDNAKSALYLQMDSLRSEDTATYFCARGELDFDYWGQGVMVAVSS
VL: ADPNSTLLSASVGDRVTLNCTASQNVYKNLAWYQQKLGEAPRLLLYSANSQTGIPSRFSGSGSGPDFTLTISSLQPEDVASYFCQQYYSGNTFGAGTKLELKR
notes: Monoclonal IgG from Lou/C rats immunized with Fc-GPVI-nt; also called ab 5C4; anti-GPVI mAb 5C4
For B1, the “signal to noise ratio” value (GPVI peptide 11 [13]) was about 20, the “signal to noise ratio” value (GPVI peptide 54 [14]) was about 4 and the “signal to noise ratio” value (GPVI peptide 37 [15]) was about 4. It also gave an LU (Light Units) (GPVI peptide 53 (human) [16]) of 359 LU, an LU (Light Units) (GPVI peptide 130 (human) [17]) of 255 LU and an LU (Light Units) (GPVI peptide 33 (human) [18]) of 259 LU. For the same molecule, the LU (Light Units) (GPVI peptide 117 (human) [19]) was 472 LU, the LU (Light Units) (GPVI peptide 7 (human) [20]) was 292 LU and the LU (Light Units) (GPVI peptide 131 (human) [21]) was 289 LU. For the same molecule, the LU (Light Units) (GPVI peptide 118 (human) [22]) was 336 LU and the LU (Light Units) (GPVI peptide 32 (human) [23]) was 319 LU.
